Test results published in patent US20250161441A1, “MEDICINE COMPRISING COMBINATION OF ANTI-MUTANT-CALR ANTIBODY AND ANOTHER DRUG” (JUNTENDO EDUCATIONAL FOUNDATION, priority 2022, published 2025).
Changes are numbered by the printed parent chain.

B1: C6: rat monoclonal anti-mutant CALR antibody from hybridoma clone C6, VH SEQ ID NO: 8, VL SEQ ID NO: 9 (antibody, listed as Rattus norvegicus, V domains shown)
VH: QVQLQQSGAELVKPGSSVKISCKASGYTFTSYFVHWIKQQPGDGLEWIGWIYPGDGDTEYNHKFNGKSTLTADRSSSTAYMQLSSLTSEDSAVYFCARGNYYDGREVMDAWGQGASVTVSS
VL: DVVLTQTPPTLSATIGQSVSISCRSSQSLLDSDGETYLNWLLQRPGQSPQLLIYSVSNLESGVPNRFSGSGSETDFTLKISGMEAEDLGVYYCMQATHGPYTFGAGTKLELK
B2: G1: rat monoclonal anti-mutant CALR antibody from hybridoma clone G1, VH SEQ ID NO: 10, VL SEQ ID NO: 11 (antibody, listed as Rattus norvegicus, V domains shown)
VH: B1 VH with H62Q, S68A
VL: B1 VL with S48C, M83V, A96G
B3: B3: rat monoclonal anti-mutant CALR antibody from hybridoma clone B3, VH SEQ ID NO: 6, VL SEQ ID NO: 7 (antibody, listed as Rattus norvegicus, V domains shown)
VH: QVQLQQSGAELVKPGSSVKISCKASGYTFTRNFIHWIKQQPGNGLEWIGWIFPGDGDTEYNQKFNGKATLTADKSSSTAYMQLSSLTSEDSAVYFCARGNYNYEYFDYWGQGVMVTVSS
VL: DIQMTQSPASLSASLGETVSIECLASEDIYSYLAWYQQKPGKSPQLLIFAANRLQDGVPSRFSGSGSGTQFSLKISGMQPEDEGDYFCLQGSKFPYTFGPGTKLELN

System: Del 52 type or Ins 5 type mutant CALR protein
Assay: Verification of recognition of mutant CALR proteins (SDS-PAGE / immunoblot of culture supernatants)
Assay type: binding, human
Settings: culture supernatants of UT-7/TPO cells expressing FLAG-tagged Del 52 or Ins 5 mutant CALR
Method: UT-7/TPO cells expressing a Del 52 type or Ins 5 type mutant CALR having a FLAG-tag inserted downstream of the signal sequence at the N-terminus were cultured, and culture supernatants containing the secreted mutant CALR proteins were prepared by centrifugation (1,600 g×5 mins, 4° C.). The culture supernatants were heat-treated in the presence of SDS and a reducing agent, then resolved on a gel by SDS polyacrylamide electrophoresis, electrically transferred on a polyvinylidene difluoride (PVDF) membrane, and reacted with a TBS-T solution containing 5% skim milk at room temperature for 1 hour, followed by reaction with a 5% BSA/TBS-T solution containing a rat clone B3, C6, or G1 antibody or mouse anti-[…] tag antibody (FUJIFILM Wako Pure Chemical Corporation) at 4° C. overnight. After washing with a TBS-T solution, the reaction products were each reacted with a 5% skim milk/TBS-T solution containing a peroxidase-labeled goat anti-rat IgG antibody (Jackson Immuno Research Inc.) or a peroxidase-labeled goat anti-mouse IgG antibody (Jackson Immuno Research Inc.) at room temperature for 1 hour. After washing with a TBS-T solution, the PVDF membranes were reacted with a peroxidase luminescence reagent. The resulting signals were detected using a FUSION image pickup apparatus.

Molecule | Recognition of full-length and cleaved mutant CALR proteins
B1 | recognize the full-length and cleaved mutant CALR proteins
B2 | recognize the full-length and cleaved mutant CALR proteins
B3 | recognize the full-length and cleaved mutant CALR proteins
